Test results published in US20240158497A1 (published 2024).

Columns and labels:
[1] = target: T1, human LEPR extracellular domain expressed with a C-terminal myc-myc-hexahistidine tag (human, UniProt P48357 22-839); test: SPR Biacore 4000, bsAb captured by anti-human Fc, 25 C
T1 construct: Monomeric reagent; the whole entry is the construct with its tag; also called hLEPR-MMH; hLEPR.mmh
Protocol: (§1) Equilibrium dissociation constants (KD values) for LEPR and GP130 binding to purified anti-LEPR/GP130 bispecific antibodies were determined using a real-time surface plasmon resonance biosensor using a Biacore 4000 instrument. All binding studies were performed in 10 mM HEPES, 150 mM NaCl, 3 mM EDTA, and 0.05% v/v Surfactant Tween-20, pH 7.4 (HBS-ET) running buffer at 25° C. and 37° C. The Biacore sensor surface was first derivatized by amine coupling with a monoclonal mouse anti-human Fc antibody (GE, #BR-1008-39) to capture anti-LEPR/GP130 bispecific antibodies. […] Different concentrations of LEPR or GP130 reagents were first prepared in HBS-ET running buffer (100 nM-3.7 nM; 3-fold serial dilution) and were injected over anti-human Fc captured anti-LEPR/GP130 bispecific antibody surface for 4 minutes at a flow rate of 30 μL/minute, while the dissociation of bispecific antibody bound LEPR or GP130 reagent was monitored for 10 minutes in HBS-ET running buffer. Kinetic association (kₐ) and dissociation (kd) rate constants were determined by fitting the real-time binding sensorgrams to a 1:1 binding model with mass transport limitation using Scrubber 2.0c curve-fitting software. Binding dissociation equilibrium constants (KD) and dissociative half-lives (t ½) were calculated from the kinetic rate constants as: […]

[2] = target: T2, Macaca Fascicularis LEPR extracellular domain expressed with a C-terminal myc-myc-hexahistidine tag (Macaca fascicularis, UniProt Q9MYL0 22-837 (rhesus entry)); test: as above
T2 construct: Monomeric reagent; the whole entry is the construct with its tag; also called mfLEPR-MMH
T2 sequence (Q9MYL0 other isoform, or with tags, fused parts or gaps): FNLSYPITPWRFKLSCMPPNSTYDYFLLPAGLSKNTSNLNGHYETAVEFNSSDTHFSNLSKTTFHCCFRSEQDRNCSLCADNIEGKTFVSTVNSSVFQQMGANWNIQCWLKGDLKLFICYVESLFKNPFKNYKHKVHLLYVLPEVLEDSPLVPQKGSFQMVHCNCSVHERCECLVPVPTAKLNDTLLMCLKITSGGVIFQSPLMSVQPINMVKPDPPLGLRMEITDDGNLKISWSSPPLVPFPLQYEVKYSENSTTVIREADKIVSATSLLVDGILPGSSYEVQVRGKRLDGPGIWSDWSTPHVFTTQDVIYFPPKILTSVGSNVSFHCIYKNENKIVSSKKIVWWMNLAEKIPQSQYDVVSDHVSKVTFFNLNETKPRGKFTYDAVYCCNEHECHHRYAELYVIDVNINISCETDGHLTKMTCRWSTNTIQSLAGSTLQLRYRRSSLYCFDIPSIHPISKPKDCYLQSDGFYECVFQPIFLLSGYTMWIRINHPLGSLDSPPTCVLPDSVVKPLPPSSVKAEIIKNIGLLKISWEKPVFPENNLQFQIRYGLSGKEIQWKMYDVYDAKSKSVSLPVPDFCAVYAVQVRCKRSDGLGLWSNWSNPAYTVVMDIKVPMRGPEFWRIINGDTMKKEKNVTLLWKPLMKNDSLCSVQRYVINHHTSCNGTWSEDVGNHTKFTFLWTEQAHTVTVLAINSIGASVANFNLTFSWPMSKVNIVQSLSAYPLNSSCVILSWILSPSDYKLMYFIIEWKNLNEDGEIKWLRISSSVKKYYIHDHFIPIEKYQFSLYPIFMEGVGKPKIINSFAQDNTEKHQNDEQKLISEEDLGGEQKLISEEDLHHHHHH
Protocol: as §1

[3] = target: T1, human LEPR extracellular domain …; test: SPR Biacore 4000, bsAb captured by anti-human Fc, 37 C
Protocol: as §1

[4] = target: T2, Macaca Fascicularis LEPR extracellular …; test: as above
Protocol: as §1

T1 sequence (P48357 other isoform, or with tags, fused parts or gaps): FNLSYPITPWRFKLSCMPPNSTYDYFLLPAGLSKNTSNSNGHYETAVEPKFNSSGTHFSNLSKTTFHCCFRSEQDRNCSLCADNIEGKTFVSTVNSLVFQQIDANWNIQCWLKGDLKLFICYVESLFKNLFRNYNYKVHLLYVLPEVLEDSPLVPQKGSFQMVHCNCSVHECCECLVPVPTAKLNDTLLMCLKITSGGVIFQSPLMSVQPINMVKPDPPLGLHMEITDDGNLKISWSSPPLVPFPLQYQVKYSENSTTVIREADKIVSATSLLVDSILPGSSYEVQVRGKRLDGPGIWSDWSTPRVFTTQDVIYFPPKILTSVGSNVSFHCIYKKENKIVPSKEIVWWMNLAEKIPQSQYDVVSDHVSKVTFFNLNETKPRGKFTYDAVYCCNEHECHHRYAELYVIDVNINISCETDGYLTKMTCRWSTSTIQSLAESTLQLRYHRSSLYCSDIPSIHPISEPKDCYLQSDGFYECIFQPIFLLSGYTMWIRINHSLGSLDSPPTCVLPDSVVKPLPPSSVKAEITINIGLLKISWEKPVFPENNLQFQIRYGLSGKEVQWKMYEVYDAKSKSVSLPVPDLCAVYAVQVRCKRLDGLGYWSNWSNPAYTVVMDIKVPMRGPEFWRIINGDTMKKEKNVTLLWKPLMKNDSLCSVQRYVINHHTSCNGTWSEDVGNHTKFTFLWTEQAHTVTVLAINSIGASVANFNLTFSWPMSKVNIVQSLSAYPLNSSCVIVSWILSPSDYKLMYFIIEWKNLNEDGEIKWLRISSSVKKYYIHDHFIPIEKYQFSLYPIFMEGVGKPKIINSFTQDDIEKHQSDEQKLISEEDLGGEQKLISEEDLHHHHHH

| Binder | 100 nM hLEPR-MMH Bound (RU) [1] [RU] | Kd [1] [nM] | koff [1] [s⁻¹] | kon [1] [M⁻¹ s⁻¹] | t½ [1] [min] | 100 nM mfLEPR-MMH Bound (RU) [2] [RU] | Kd [2] [nM] | koff [2] [s⁻¹] | kon [2] [M⁻¹ s⁻¹] | t½ [2] [min] | 100 nM hLEPR-MMH Bound (RU) [3] [RU] | Kd [3] [nM] | koff [3] [s⁻¹] | kon [3] [M⁻¹ s⁻¹] | t½ [3] [min] | 100 nM mfLEPR-MMH Bound (RU) [4] [RU] | Kd [4] [nM] | koff [4] [s⁻¹] | kon [4] [M⁻¹ s⁻¹] | t½ [4] [min] |
| --- | --- | --- | --- | --- | --- | --- | --- | --- | --- | --- | --- | --- | --- | --- | --- | --- | --- | --- | --- | --- |
| bsAb19142D (bispecific antibody, V domains shown, common light chain) VH 1: QVQLVESGGGVVQPGRSLRLSCTASGFTFSSYAMYWVRQAPGKGLEWVSVIYYDGSYKYYADSVKGRFTISRDNSKNTLYLQMDSLRAEDTAVYYCASYNWNYWYFDFWGRGTLVTVSS VH 2: EVQLVESGGGLVQPGGSLRLSCAASGLTFSSYEMNWVRQAPGKGLEWVSHISSAGSTKYYADSVKGRFTISRDNAKNSLFLQMNSLRAEDTAIYYCAGYNYAYYYFGVDVWGQGTTVTVSS VL: not shown | 46 | 7.76 | 0.000175 | 22500 | 66 | 112 | 2.74 | 0.000126 | 45900 | 92 | 74 | 18.6 | 0.000633 | 34000 | 18 | 172 | 5.57 | 0.000529 | 94900 | 22 |
| bsAb19144D (bispecific antibody, V domains shown, common light chain) VH 1: QVQLVESGGGVVQPGRSLRLSCTASGFTFSSYAMYWVRQAPGKGLEWVSVIYYDGSYKYYADSVKGRFTISRDNSKNTLYLQMDSLRAEDTAVYYCASYNWNYWYFDFWGRGTLVTVSS VH 2: QVQLVQSGAEVKKPGASVKVSCKASGYTFTSLGISWVRQAPGQGLEWMGWISAYSGNRDYAQKFQGRVTMTTDTSTSTAYMELRSLRSDDTAVYYCARSLRFDYWGQGTLVTVSS VL: not shown | 48 | 6.48 | 0.000159 | 24600 | 73 | 114 | 3.02 | 0.000124 | 41100 | 93 | 78 | 16.2 | 0.000597 | 36800 | 19 | 178 | 5.22 | 0.000517 | 99100 | 22 |
| bsAb19146D (bispecific antibody, V domains shown, common light chain) VH 1: QVQLVESGGGVVQPGRSLRLSCTASGFTFSSYAMYWVRQAPGKGLEWVSVIYYDGSYKYYADSVKGRFTISRDNSKNTLYLQMDSLRAEDTAVYYCASYNWNYWYFDFWGRGTLVTVSS VH 2: QVQLVQSGPEVKKPGSSVKVSCKASGGTIDRNEITWVRQAPGQGLEWMGVIIPILGEAHYERKFQGRLTITMDESTSTAYMELSNLRSEDTAVYYCARERAARGYLDYWGQGTLVTVSS VL: not shown | 45 | 8.16 | 0.000179 | 22000 | 64 | 107 | 2.63 | 0.000113 | 42900 | 102 | 69 | 21.3 | 0.000825 | 38700 | 14 | 164 | 5.68 | 0.000568 | 100000 | 20 |
| bsAb19148D (bispecific antibody, V domains shown, common light chain) VH 1: QVQLVESGGGVVQPGRSLRLSCTASGFTFSSYAMYWVRQAPGKGLEWVSVIYYDGSYKYYADSVKGRFTISRDNSKNTLYLQMDSLRAEDTAVYYCASYNWNYWYFDFWGRGTLVTVSS VH 2: QVQLVQSGTEVKKPGSSVKVSCKASGGTFSTYPINWVRQAPGQGLEWMGGIIPIFGTASYAQKFQGRVAITTDESTSTAYMELNSLRSEDTAVYYCARERPNWGSNDYWGQGTLVTVSS VL: not shown | 44 | 7.31 | 0.000172 | 23600 | 67 | 107 | 2.88 | 0.000119 | 41300 | 97 | 69 | 20.5 | 0.000798 | 39000 | 14 | 163 | 6.17 | 0.000571 | 92500 | 20 |
| bsAb19145D (bispecific antibody, V domains shown, common light chain) VH 1: QVQLVESGGGVVQPGRSLRLSCTASGFTFSSYAMYWVRQAPGKGLEWVSVIYYDGSYKYYADSVKGRFTISRDNSKNTLYLQMDSLRAEDTAVYYCASYNWNYWYFDFWGRGTLVTVSS VH 2: EVQLVESGGGLVQPGRSLRLSCAASGFTLDDFAMHWVRQAPGKGLEWVSGISWNSGNIGYADSVKGRFTISRDNARNSLYLQMNSLRAEDTALYYCTSGYYLYYAMDVWGQGTTVTVSS VL: not shown | 41 | 6.62 | 0.000165 | 24900 | 70 | 102 | 2.75 | 0.000123 | 44900 | 94 | 66 | 20.8 | 0.000805 | 38600 | 14 | 162 | 5.48 | 0.000566 | 103000 | 20 |
| bsAb19147D (bispecific antibody, V domains shown, common light chain) VH 1: QVQLVESGGGVVQPGRSLRLSCTASGFTFSSYAMYWVRQAPGKGLEWVSVIYYDGSYKYYADSVKGRFTISRDNSKNTLYLQMDSLRAEDTAVYYCASYNWNYWYFDFWGRGTLVTVSS VH 2: EVQLVESGGGLVQPGGSLRLSCTASGFTFSNYAIFWVRQAPGKGLEYVSGISNNGVTKYYADSVRDRFTISRDNSRNTVSIQMDSLRTEDMAVYYCARENWGSDDGFDIWGQGTMVTVSS VL: not shown | 42 | 7.13 | 0.000162 | 22700 | 71 | 107 | 2.8 | 0.000119 | 42500 | 97 | 65 | 20.5 | 0.000791 | 38500 | 15 | 163 | 5.64 | 0.000565 | 100000 | 20 |
| bsAb19143D (bispecific antibody, V domains shown, common light chain) VH 1: QVQLVESGGGVVQPGRSLRLSCTASGFTFSSYAMYWVRQAPGKGLEWVSVIYYDGSYKYYADSVKGRFTISRDNSKNTLYLQMDSLRAEDTAVYYCASYNWNYWYFDFWGRGTLVTVSS VH 2: QLQLQESGPGLVKPSETLSLICTVSGGSISSNNYYWGWIRQPPGKGLEWIGNLYGSGSTYYNPSLKSRVTISVDTSKNQFSLKLSFVTAADTAVYHCARWDTNGGAFDIWGQGTMVTVSS VL: not shown | 45 | 7.31 | 0.000182 | 24900 | 64 | 111 | 3.04 | 0.000136 | 44800 | 85 | 72 | 21.5 | 0.000763 | 35500 | 15 | 171 | 5.74 | 0.000551 | 95900 | 21 |
